Where a chain is given by its changes, count along the chain named.
B1: human PON1-192R: human PON1 192R isozyme purified from pooled blood samples (protein)
chain: AKLIALTLLGMGLALFRNHQSSYQTRLNALREVQPVELPNCNLVKGIETGSEDLEILPNGLAFISSGLKYPGIKSFNPNSPGKILLMDLNEEDPTVLELGITGSKFDVSSFNPHGISTFTDEDNAMYLLVVNHPDAKSTVELFKFQEEEKSLLHLKTIRHKLLPNLNDIVAVGPEHFYGTNDHYFLDPYLRSWEMYLGLAWSYVVYYSPSEVRVVAEGFDFANGINISPDGKYVYIAELLAHKIHVYEKHANWTLTPLKSLDFNTLVDNISVDPETGDLWVGCHPNGMKIFFYDSENPPASEVLRIQNILTEEPKVTQVYAENGTVLQGSTVASVYKGKLLIGTVFHKALYCEL
B2: human PON1-192Q: human PON1 192Q isozyme purified from pooled blood samples (protein)
chain: B1 chain with R191Q

Tests used:
Format in all cases: biochemical
apoA-I rHDL = assay: Inactivation kinetics of human PON1 192 isozymes on rHDL-apoA-I (NTA/β-mercaptoethanol); conditions: 50-fold molar excess rHDL-apoA-I; NTA and β-mercaptoethanol each 5 mM, 25° C.
Experimental: (§1) FIGS. 5A-B are graphs showing the inactivation and catalytic stimulation of the human PON1 192R/Q isozymes. FIG. 5A is a line graph showing the inactivation kinetics of human PON1-192R and -192Q in the presence of rHDL-apoA-I. The delipidated isozymes (0.2 μM) were incubated with a 50-fold molar excess of rHDL-apoA-I in activity buffer, and subjected to inactivation by NTA and β-mercaptoethanol (each at 5 mM) at 25° C. Residual activity determined as above (FIG. 1) and data were fitted to a double-exponential function. FIG. 5B is a bar graph showing stimulation of the enzymatic activity of human PON1-192R and -192Q by rHDL-apoA-I. The delipidated isozymes were incubated with a 50-fold molar excess of rHDL-apoA-I, and enzymatic activity was determined with various substrates (at 1 mM for all the substrates, except TBBL at 0.25 mM). The activity is presented in relation to the initial activity of the delipidated enzymes (percentage of stimulation). Each bar represents the mean and S.D. of at least two independent measurements;
Human PON1-192R and Q isozymes purified from pooled blood samples [Gan, K. N., et al., Drug Metab Dispos, 1991. 19(1): p. 100-6] were kindly provided by Dr. Dragomir Draganov (University of Michigan, Ann Arbour), and stored in presence of 0.1% tergitol and 20% glycerol. Prior to assay, these samples were briefly delipidated [Gaidukov, L. and D. S. Tawfik, Biochemistry, 2005. 44(35): p. 11843-54] and dialyzed against activity buffer to remove the tergitol and glycerol that interfere with HDL binding. Dialyzed samples (0.2 μM) were incubated with rHDL (10 μM). Stability assays were performed at 25° C., in activity buffer supplemented with nitrilotriacetic acid (NTA) and β-mercaptoethanol, both at 5 mM. Data analysis was performed as described above for rePON1s. Stimulation of enzymatic activities was measured with various substrates at 1 mM concentration, except for TBBL (0.25 mM).
The progress of inactivation of human PON1 isozymes anchored on rHDL-apoA-I is illustrated in FIG. 5A. Inactivation of both isozymes followed a two-phase kinetics with similar inactivation rates, but different partitioning between the HDL-bound and unbound phases, as detailed in Table 4 hereinbelow. Amplitudes (A) and kinetic rates of inactivation (k^inactiv) were derived by fitting the data to a double-exponential curve.

rHDL-apoA-I = assay: Stimulation of enzymatic activity of human PON1 192 isozymes by rHDL-apoA-I; conditions: all the lactones tested; rHDL/PON1 ratio of 50
Experimental: as §1, with “Each bar represents the mean and S.D. of at least two independent measurements;” left out
Human PON1-192R and Q isozymes purified from pooled blood samples [Gan, K. N., et al., Drug Metab Dispos, 1991. […] Stimulation of enzymatic activities was measured with various substrates at 1 mM concentration, except for TBBL (0.25 mM).
HDL-mediated stimulation of the enzymatic activity of human PON1 isozymes was determined by incubating PON1 with the highest rHDL-apoA-I concentration (corresponding to the rHDL/PON1 ratio of 50) (FIG. 5B). […]

[1] = Dihydrocoumarin hydrolysis by PON1 isozymes (Vmax); conditions: Vmax^Q=1.125*Vmax^R
Experimental: Determination of a total PON1 level may be effected by any method known in the art. For example, the level of total PON1 may be determined using an antibody specific for PON1. Preferably, the level of total PON1 is determined by measuring the level of total enzymatically active PON1. Thus for example, the level of total PON1 may be measured using an ELISA assay. Such assays are known in the art—see for example Blatter et al, Biochem J 304 (Pt 2): 549-554. An exemplary method for measuring total PON1's serum concentration comprises assaying PON1 dihydrocoumarin hydrolysis as described in Example 3.

Molecule	A2(%) (slow phase, HDL-bound fraction) (apoA-I rHDL)	k1^inactiv (first, fast phase) (apoA-I rHDL) [h⁻¹]	k2^inactiv (second, slow phase) (apoA-I rHDL) [h⁻¹]	fold higher activation level than 192Q (rHDL-apoA-I)	ratio of Vmax of PON1-192Q and -192R isozymes toward dihydrocoumarin [1]
B1	87	0.4	0.01	about 2 fold	–
B2	72	0.6	0.01	–	1.125

— patent publication US20100028924A1, “Method Of Diagnosing Pon1-Hdl Associated Lipid Disorders” (Rappaport Family Institute Research in the Medical Sciences, priority 2006, published 2010)
